# Results as given in patent US8840891 (RSR, dated 2014).
# What was measured:
# TSHR coated onto tubes [1] = target: T1, TSHR coated onto tubes (human, UniProt P16473 21-764, limits assumed); assay: TSHR coated tubes, competitor 125I-M22 IgG
# T1 construct: whole entry named; also called TSHR coated tubes; thyrotropin receptor
# TSHR coated onto tubes [2] = target: T1, TSHR coated onto tubes; assay: TSHR coated tubes, competitor 125I-TSH
# TSHR coated onto tubes [3] = target: T1, TSHR coated onto tubes; assay: TSHR coated tubes, competitor 125I-5C9 IgG
# [4] = target: wild type human TSHR (human) (UniProt P16473); assay: cell-based or functional assay
# [5] = target: human TSHR (wild type) expressed in CHO cells (human) (UniProt P16473); assay: cell-based or functional assay
# [6] = target: human TSHR expressed on CHO cells (human) (UniProt P16473); assay: cell-based or functional assay
# [7] = target: human TSHR (wild type) expressed in CHO cells (human) (UniProt P16473); assay: cell-based or functional assay; remark: listed apart in the source
# [8] = target: human TSHR, wild type, expressed on CHO cells (human) (UniProt P16473); assay: cell-based or functional assay
binder,measurement,setting,value
"2B4 IgG (antibody, V domains shown) VH: DVQLQQSGTVLARPGASVRMSCKASGYSFTRYWIHWLKQRPGQGLEWIGAIFPGNRDTSYNQRFKGKAEVTAVTSASTAYLDLSSLTNEDSAVYYCTRWPYYGSIYVNFDYWGQGTTLTVSS VL: DIVMTQSPLSLPVSLGDQASISCRTSQNLVHRNGNTYLHWYLQKPGQSPKLLIYKISNRFSGVPDRFSGSGSGTDFTLKISRVEAEDLGVYFCSQGTHVPPTFGGGTKLEIKR",% inhib of 125I-M22 IgG binding at 0.01 µg/mL,TSHR coated onto tubes [1],1%
same,% inhib of 125I-M22 IgG binding at 0.1 µg/mL,TSHR coated onto tubes [1],12%
same,% inhib of 125I-M22 IgG binding at 1 µg/mL,TSHR coated onto tubes [1],9%
same,% inhib of 125I-M22 IgG binding at 10 µg/mL,TSHR coated onto tubes [1],19%
same,% inhib of 125I-M22 IgG binding at 100 µg/mL,TSHR coated onto tubes [1],30%
same,% inhib of 125I-TSH binding at 0.01 µg/mL,TSHR coated onto tubes [2],13.5%
same,% inhib of 125I-TSH binding at 0.1 µg/mL,TSHR coated onto tubes [2],56%
same,% inhib of 125I-TSH binding at 1 µg/mL,TSHR coated onto tubes [2],82%
same,% inhib of 125I-TSH binding at 10 µg/mL,TSHR coated onto tubes [2],85%
same,% inhib of 125I-TSH binding at 100 µg/mL,TSHR coated onto tubes [2],88.5%
same,% inhib of 125I-5C9 IgG binding at 0.01 µg/mL,TSHR coated onto tubes [3],8%
same,% inhib of 125I-5C9 IgG binding at 0.1 µg/mL,TSHR coated onto tubes [3],23%
same,% inhib of 125I-5C9 IgG binding at 1 µg/mL,TSHR coated onto tubes [3],42%
same,% inhib of 125I-5C9 IgG binding at 10 µg/mL,TSHR coated onto tubes [3],48%
same,% inhib of 125I-5C9 IgG binding at 100 µg/mL,TSHR coated onto tubes [3],72%
"9D33 IgG (antibody, V domains shown) VH: DVQIQQPGTELVKPGASVRLSCKASGYTFTTYWMHWVKQRPGQGLEWIGEIDPSDSYTNYNQKFKGKATLTVDKSSSTAYMHLSSLTSEDSAVYYCSRNYGSGYYFDYWGQGTTLTVSS VL: GVEMTQSPAIMSASPGEKVTMTCSASSSVSYMHWYQQKSGTSPKRWIYDTSKLASGVPARFSGSGSGTSYSLTISSMETEDAATYYCQQWSSNPWTFGGGTKLEIK",% inhib of 125I-M22 IgG binding at 0.01 µg/mL,TSHR coated onto tubes [1],13%
same,% inhib of 125I-M22 IgG binding at 0.1 µg/mL,TSHR coated onto tubes [1],27%
same,% inhib of 125I-M22 IgG binding at 1 µg/mL,TSHR coated onto tubes [1],48%
same,% inhib of 125I-M22 IgG binding at 10 µg/mL,TSHR coated onto tubes [1],60%
same,% inhib of 125I-M22 IgG binding at 100 µg/mL,TSHR coated onto tubes [1],61%
same,% inhib of 125I-TSH binding at 0.01 µg/mL,TSHR coated onto tubes [2],8%
same,% inhib of 125I-TSH binding at 0.1 µg/mL,TSHR coated onto tubes [2],31%
same,% inhib of 125I-TSH binding at 1 µg/mL,TSHR coated onto tubes [2],55%
same,% inhib of 125I-TSH binding at 10 µg/mL,TSHR coated onto tubes [2],65%
same,% inhib of 125I-TSH binding at 100 µg/mL,TSHR coated onto tubes [2],69%
same,% inhib of 125I-5C9 IgG binding at 0.01 µg/mL,TSHR coated onto tubes [3],13%
same,% inhib of 125I-5C9 IgG binding at 0.1 µg/mL,TSHR coated onto tubes [3],29%
same,% inhib of 125I-5C9 IgG binding at 1 µg/mL,TSHR coated onto tubes [3],48%
same,% inhib of 125I-5C9 IgG binding at 10 µg/mL,TSHR coated onto tubes [3],60%
same,% inhib of 125I-5C9 IgG binding at 100 µg/mL,TSHR coated onto tubes [3],70%
same,cyclic AMP; 100 µg/mL 9D33 IgG only (fmol/cell well),[4],534
same,cyclic AMP; T21 + 0.001 µg/mL 9D33 IgG (fmol/cell well),[4],10200
same,cyclic AMP; T21 + 0.01 µg/mL 9D33 IgG (fmol/cell well),[4],10800
same,cyclic AMP; T21 + 0.1 µg/mL 9D33 IgG (fmol/cell well),[4],8720
same,cyclic AMP; T21 + 1 µg/mL 9D33 IgG (fmol/cell well),[4],1380
same,cyclic AMP; T21 + 10 µg/mL 9D33 IgG (fmol/cell well),[4],605
same,cyclic AMP; T21 + 100 µg/mL 9D33 IgG (fmol/cell well),[4],442
same,cyclic AMP production; 9D33 IgG 100 µg/mL + M22 Fab 3 ng/mL (fmol/cell well),[5],1050
same,cyclic AMP production; 9D33 IgG 100 µg/mL + pTSH 3 ng/mL (fmol/cell well),[5],2220
same,cyclic AMP production; 9D33 IgG 100 µg/mL only (fmol/cell well),[5],626
same,"Cyclic AMP, serum T1 + 0.001 µg/mL 9D33 IgG (fmol/cell well)",[6],21600
same,"Cyclic AMP, serum T1 + 0.01 µg/mL 9D33 IgG (fmol/cell well)",[6],19900
same,"Cyclic AMP, serum T1 + 0.1 µg/mL 9D33 IgG (fmol/cell well)",[6],17900
same,"Cyclic AMP, serum T1 + 1 µg/mL 9D33 IgG (fmol/cell well)",[6],4990
same,"Cyclic AMP, serum T1 + 10 µg/mL 9D33 IgG (fmol/cell well)",[6],1460
same,"Cyclic AMP, serum T3 + 0.001 µg/mL 9D33 IgG (fmol/cell well)",[6],12200
same,"Cyclic AMP, serum T3 + 0.01 µg/mL 9D33 IgG (fmol/cell well)",[6],12200
same,"Cyclic AMP, serum T3 + 0.1 µg/mL 9D33 IgG (fmol/cell well)",[6],12000
same,"Cyclic AMP, serum T3 + 1 µg/mL 9D33 IgG (fmol/cell well)",[6],7380
same,"Cyclic AMP, serum T3 + 10 µg/mL 9D33 IgG (fmol/cell well)",[6],4260
same,"Cyclic AMP, serum T6 + 0.001 µg/mL 9D33 IgG (single determination) (fmol/cell well)",[6],10300
same,"Cyclic AMP, serum T6 + 0.01 µg/mL 9D33 IgG (fmol/cell well)",[6],10300
same,"Cyclic AMP, serum T6 + 0.1 µg/mL 9D33 IgG (fmol/cell well)",[6],8700
same,"Cyclic AMP, serum T6 + 1 µg/mL 9D33 IgG (fmol/cell well)",[6],5450
same,"Cyclic AMP, serum T6 + 10 µg/mL 9D33 IgG (fmol/cell well)",[6],2260
same,"Cyclic AMP, serum T19 + 0.001 µg/mL 9D33 IgG (fmol/cell well)",[6],7090
same,"Cyclic AMP, serum T19 + 0.01 µg/mL 9D33 IgG (mean of duplicate) (fmol/cell well)",[6],5760
same,"Cyclic AMP, serum T19 + 0.1 µg/mL 9D33 IgG (mean of duplicate) (fmol/cell well)",[6],2390
same,"Cyclic AMP, serum T19 + 1 µg/mL 9D33 IgG (fmol/cell well)",[6],404
same,"Cyclic AMP, serum T19 + 10 µg/mL 9D33 IgG (fmol/cell well)",[6],448
same,"Cyclic AMP, serum T20 + 0.001 µg/mL 9D33 IgG (fmol/cell well)",[6],7510
same,"Cyclic AMP, serum T20 + 0.01 µg/mL 9D33 IgG (fmol/cell well)",[6],5390
same,"Cyclic AMP, serum T20 + 0.1 µg/mL 9D33 IgG (fmol/cell well)",[6],5360
same,"Cyclic AMP, serum T20 + 1 µg/mL 9D33 IgG (mean of duplicate) (fmol/cell well)",[6],980
same,"Cyclic AMP, serum T20 + 10 µg/mL 9D33 IgG (fmol/cell well)",[6],204
"5C9 Fab (Fab, from another filing, V domains shown) VH: EVQLVESGGGLIQPGGSLRLSCAASGFTVSSNYMSWVRQAPGKGLEWVSVTYSGGSTSYADSVKGRFTISRDNSKNTLYLQMNSLRAEDTAVYYCARGGRYCSSISCYARSGCDYWGQGTLVTVSS VL: AIQMTQSPSSLSASVGDRVTITCRASQSISNYLNWYQQKPGKAPKLLIYAASSLQSGVPSRFSGSGSGTDFTLTISSLQPEDFATYYCQQSYSSPSTTFGQGTKLEIK",cyclic AMP; Example 1; 5C9 Fab 10 µg/mL + TSH (fmol/cell well),[7],1280
same,cyclic AMP; Example 1; 5C9 Fab 100 µg/mL + TSH (fmol/cell well),[7],938
same,cyclic AMP; Example 1; 5C9 Fab 100 µg/mL only (fmol/cell well),[7],235
same,cyclic AMP; Example 2; 5C9 Fab 10 µg/mL + TSH (fmol/cell well),[7],4130
same,cyclic AMP; Example 2; 5C9 Fab 100 µg/mL + TSH (fmol/cell well),[7],867
same,cyclic AMP; Example 2; 5C9 Fab 100 µg/mL only (fmol/cell well),[7],212
same,% inhibition of basal cyclic AMP production; Exp 3; 5C9 F(ab′) 0.001 µg/mL,[8],3%
same,% inhibition of basal cyclic AMP production; Exp 3; 5C9 F(ab′) 0.1 µg/mL,[8],19%
same,% inhibition of basal cyclic AMP production; Exp 3; 5C9 F(ab′) 1 µg/mL,[8],23%
same,% inhibition of basal cyclic AMP production; Exp 3; 5C9 F(ab′) 10 µg/mL,[8],39%
same,% inhibition of basal cyclic AMP production; Exp 3; 5C9 F(ab′) 100 µg/mL,[8],48%
same,% inhibition of basal cyclic AMP production; Exp 3; 5C9 Fab 0.1 µg/mL,[8],11%
same,% inhibition of basal cyclic AMP production; Exp 3; 5C9 Fab 1 µg/mL,[8],39%
same,% inhibition of basal cyclic AMP production; Exp 3; 5C9 Fab 10 µg/mL,[8],46%
same,% inhibition of basal cyclic AMP production; Exp 3; 5C9 Fab 100 µg/mL,[8],61%
